From patent US20210079040

T1: Link N (human Link N, DHLSDNYTLDHDRAIH)
T1 sequence: DHLSDNYTLDHDRAIH

B1: MMP 7 (enzyme, UniProt P09237 95-267, looked up, species assumed)
Matrilysin: YSLFPNSPKWTSKVVTYRIVSYTRDLPHITVDRLVSKALNMWGKEIPLHFRKVVWGTADIMIGFARGAHGDSYPFDGPGNTLAHAFAPGTGLGGDAHFDEDERWTDGSSLGINFLYAATHELGHSLGMGHSSDPNAVMYPTYGNGDPQNFKLSQDDIKGIQKLYGKRSNSRKK
B2: cathepsin K (enzyme, UniProt P43235 115-329, looked up, species assumed)
Cathepsin K: APDSVDYRKKGYVTPVKNQGQCGSCWAFSSVGALEGQLKKKTGKLLNLSPQNLVDCVSENDGCGGGYMTNAFQYVQKNRGIDSEDAYPYVGQEESCMYNPTGKAAKCRGYREIPEGNEKALKRAVARVGPVSVAIDASLTSFQFYSKGVYYDESCNSDNLNHAVLAVGYGIQKGNKHWIIKNSWGENWGNKGYILMARNKNNACGIANLASFPKM
B3: ADAMTS 4 (enzyme, UniProt O75173 213-837, looked up, species assumed)
A disintegrin and metalloproteinase with thrombospondin motifs 4: FASLSRFVETLVVADDKMAAFHGAGLKRYLLTVMAAAAKAFKHPSIRNPVSLVVTRLVILGSGEEGPQVGPSAAQTLRSFCAWQRGLNTPEDSDPDHFDTAILFTRQDLCGVSTCDTLGMADVGTVCDPARSCAIVEDDGLQSAFTAAHELGHVFNMLHDNSKPCISLNGPLSTSRHVMAPVMAHVDPEEPWSPCSARFITDFLDNGYGHCLLDKPEAPLHLPVTFPGKDYDADRQCQLTFGPDSRHCPQLPPPCAALWCSGHLNGHAMCQTKHSPWADGTPCGPAQACMGGRCLHMDQLQDFNIPQAGGWGPWGPWGDCSRTCGGGVQFSSRDCTRPVPRNGGKYCEGRRTRFRSCNTEDCPTGSALTFREEQCAAYNHRTDLFKSFPGPMDWVPRYTGVAPQDQCKLTCQAQALGYYYVLEPRVVDGTPCSPDSSSVCVQGRCIHAGCDRIIGSKKKFDKCMVCGGDGSGCSKQSGSFRKFRYGYNNVVTIPAGATHILVRQQGNPGHRSIYLALKLPDGSYALNGEYTLMPSPTDVVLPGAVSLRYSGATAASETLSGHGPLAQPLTLQVLVAGNPQDTRLRYSFFVPRPTPSTPRPTPQDWLHRRAQILEILRRRPWAGRK

Tested on: T1, Link N (human Link N, DHLSDNYTLDHDRAIH)

| Molecule | peak area intensity of the 1922 Da Link 1-16 peptide (mass spectrometry) after proteinase digest |
| --- | --- |
| ADAMTS 5 | un-affected by MMPs 3, 7, 12, 13, ADAMTS 4,5, HTRA1, and cathepsins B, and L |
| HTRA1 | un-affected by MMPs 3, 7, 12, 13, ADAMTS 4,5, HTRA1, and cathepsins B, and L |
| MMP 3 | un-affected by MMPs 3, 7, 12, 13, ADAMTS 4,5, HTRA1, and cathepsins B, and L |
| MMP 12 | un-affected by MMPs 3, 7, 12, 13, ADAMTS 4,5, HTRA1, and cathepsins B, and L |
| MMP 13 | un-affected by MMPs 3, 7, 12, 13, ADAMTS 4,5, HTRA1, and cathepsins B, and L |
| cathepsin B | un-affected by MMPs 3, 7, 12, 13, ADAMTS 4,5, HTRA1, and cathepsins B, and L |
| cathepsin L | un-affected by MMPs 3, 7, 12, 13, ADAMTS 4,5, HTRA1, and cathepsins B, and L |
| B1 | un-affected by MMPs 3, 7, 12, 13, ADAMTS 4,5, HTRA1, and cathepsins B, and L |
| B2 | significantly diminished already after 30 minutes and was hardly detectable at 2 and 24 hours incubation with cathepsin K |
| B3 | un-affected by MMPs 3, 7, 12, 13, ADAMTS 4,5, HTRA1, and cathepsins B, and L |
